46 variants from the Human Domainome abundance scans (Beltran et al. 2025) can be followed below.

± gives the uncertainty stated by the source.

The chains are these.
B1: Spectrin alpha chain, erythrocytic 1, residues 979 to 1036; numbered along this chain, P02549 (parent)
chain: EQRVMALYDFQARSPREVTMKKGDVLTLLSSINKDWWKVEAADHQGIVPAVYVRRLAH
B2: Histidine--tRNA ligase, cytoplasmic, residues 8 to 45; numbered along this chain, P12081 (parent)
chain: EELVKLQGERVRGLKQQKASAELIEEEVAKLLKLKAQL

In the first data set the parent is B1. The experiment in a line: abundance fitness (aPCA) (normalised: wild type 0, dead -1); higher = more abundant; growth selection in yeast, the domain comes from the species named. The following applies: Homo sapiens.
As to EQRVMALYDFQARSPREVTMKKGDVLTLLSSINKDWWKVEAADHQGIVPAVYVRRLDH [A57D], the abundance fitness was 0.507 ± 0.19.

As for EQRVMALYDFQARSPREVTMKKGDVLTLLSSINKDWWKVEAADHQGIVPAVYVRRLNH [A57N], the abundance fitness came to 0.105 ± 0.47.

As for EQRVMALYDFQARSPREVTMKKGDVLTLLSSINKDWWKVEAADHQGIVPAVYVRRLRH [A57R], the abundance fitness was -0.053 ± 0.16.

Turning to EQRVMALYDFQARSPREVTMKKGDVLTLLSSINKDWWKVEAADHQGIVPAVYVRRLTH [A57T], the abundance fitness was -0.022 ± 0.43.

For the variant EQRVMALYDFQARSPREVTMKKGDVLTLLSSINKDWWKVEAADHQGIVPAVYVRRLSH [A57S], the abundance fitness was 0.236 ± 0.16.

With EQRVMALYDFQARSPREVTMKKGDVLTLLSSINKDWWKVEAADHQGIVPAVYVRRLKH [A57K], the abundance fitness turned out to be 0.933 ± 0.21.

Turning to EQRVMALYDFQARSPREVTMKKGDVLTLLSSINKDWWKVEAADHQGIVPAVYVRRLVH [A57V], the abundance fitness was -0.47 ± 0.23.

For EQRVMALYDFQARSPREVTMKKGDVLTLLSSINKDWWKVEAADHQGIVPAVYVRRLPH [A57P], the abundance fitness is 0.297 ± 0.14.

On to EQRVMALYDFQARSPREVTMKKGDVLTLLSSINKDWWKVEAADHQGIVPAVSVRRLAH [Y52S], for which the abundance fitness was found to be 0.155 ± 0.082.

Regarding EQRVMALYDFQARSPREVTMKKGDVLTLLSSINKDWWKVEAADHQGIVPAVMVRRLAH [Y52M], the abundance fitness was -0.045 ± 0.11.

As for EQRVMALYDFQARSPREVTMKKGDVLTLLSSINKDWWKVEAADHQGIVPAVGVRRLAH [Y52G], the abundance fitness is -0.659 ± 0.29.

As to EQRVMALYDFQARSPREVTMKKGDVLTLLSSINKDWWKVEAADHQGIVPAVEVRRLAH [Y52E], the abundance fitness was -0.165 ± 0.23.

For the variant EQRVMALYDFQARSPREVTMKKGDVLTLLSSINKDWWKVEAADHQGIVPAVFVRRLAH [Y52F], the abundance fitness is -0.367 ± 0.16.

As to EQRVMALYDFQARSPREVTMKKGDVLTLLSSINKDWWKVEAADHQGIVPAVVVRRLAH [Y52V], the abundance fitness is -0.682 ± 0.19.

For the variant EQRVMALYDFQARSPREVTMKKGDVLTLLSSINKDWWKVEAADHQGIVPAVAVRRLAH [Y52A], the abundance fitness is 0.089 ± 0.13.

On to EQRVMALYDFQARSPREVTMKKGDVLTLLSSINKDWWKVEAADHQGIVPAVPVRRLAH [Y52P], for which the abundance fitness is -0.075 ± 0.26.

On to EQRVMALYDFQARSPREVTMKKGDVLTLLSSINKDWWKVEAADHQGIVPAVTVRRLAH [Y52T], for which the abundance fitness is -0.678 ± 0.17.

Turning to EQRVMALYDFQARSPREVTMKKGDVLTLLSSINKDWWKVEAADHQGIVPAVRVRRLAH [Y52R], the abundance fitness is -0.53 ± 0.22.

As for EQRVMALYDFQARSPREVTMKKGDVLTLLSSINKDWWKVEAADHQGIVPAVLVRRLAH [Y52L], the abundance fitness is -0.284 ± 0.16.

For the variant EQRVMALYDFQARSPREVTMKKGDVLTLLSSINKDWWKVEAADHQGIVPAVHVRRLAH [Y52H], the abundance fitness was -0.368 ± 0.45.

Consider EQRVMALYDFQARSPREVTMKKGDVLTLLSSINKDWWKVEAADHQGIVPAVKVRRLAH [Y52K], for which the abundance fitness is -0.528 ± 0.22.

Take EQRVMALYDFQARSPREVTMKKGDVLTLLSSINKDWWKVEAADHQGIVPAVWVRRLAH [Y52W]: the abundance fitness is -0.978 ± 0.41.

For EQRVMALYDFQARSPREVTMKKGDVLTLLSSINKDWWKVEAADHQGIVPAVYVRRMAH [L56M], the abundance fitness was -0.029 ± 0.31.

EQRVMALYDFQARSPREVTMKKGDVLTLLSSINKDWWKVEAADHQGIVPAVYVRRCAH [L56C]: the abundance fitness is -0.169 ± 0.44.

EQRVMALYDFQARSPREVTMKKGDVLTLLSSINKDWWKVEAADHQGIVPAVYVRRVAH [L56V]: the abundance fitness is -0.207 ± 0.23.

For the variant EQRVMALYDFQARSPREVTMKKGDVLTLLSSINKDWWKVEAADHQGIVPAVYVRRPAH [L56P], the abundance fitness was -0.45 ± 0.38.

On to EQRVMALYDFQARSPREVTMKKGDVLTLLSSINKDWWKVEAADHQGIVPAVYVRRSAH [L56S], for which the abundance fitness was -0.006 ± 0.21.

On to EQRVMALYDFQARSPREVTMKKGDVLTLLSSINKDWWKVEAADHQGIVPAVYVRRRAH [L56R], for which the abundance fitness was -0.874 ± 0.2.

On to EQRVMALYDFQARSPREVTMKKGDVLTLLSSINKDWWKVEAADHQGIVPAVYVRRIAH [L56I], for which the abundance fitness is -0.021 ± 0.12.

On to EQRVMALYDFQARSPREVTMKKGDVLTLLSSINKDWWKVEAADHQGIVPAVYVRRKAH [L56K], for which the abundance fitness is -0.417 ± 0.45.

Consider EQRVMALYDFQARSPREVTMKKGDVLTLLSSINKDWWKVEAADHQGIVPAVYVRRWAH [L56W], for which the abundance fitness was -0.982 ± 0.33.

With EQRVMALYDFQARSPREVTMKKGDVLTLLSSINKDWWKVEAADHQGIVPAVYVRRQAH [L56Q], the abundance fitness is -0.848 ± 0.16.

Regarding EQRVMALYDFQARSPREVTMKKGDVLTLLSSINKDWWKVEAADHQGIVPAVYVRRTAH [L56T], the abundance fitness is -0.448 ± 0.3.

As to EQRVMALYDFQARSPREVTMKKGDVLTLLSSINKDWWKVEAADHQGIVPAVYVRRAAH [L56A], the abundance fitness is -0.882 ± 0.21.

Consider EQRVMALYDFQARSPREVTMKKGDVLTLLSSINKDWWKVEAADHQGIVPPVYVRRLAH [A50P], for which the abundance fitness was -0.847 ± 0.4.

For EQRVMALYDFQARSPREVTMKKGDVLTLLSSINKDWWKVEAADHQGIVPMVYVRRLAH [A50M], the abundance fitness is -0.823 ± 0.2.

For EQRVMALYDFQARSPREVTMKKGDVLTLLSSINKDWWKVEAADHQGIVPLVYVRRLAH [A50L], the abundance fitness was -0.844 ± 0.2.

Take EQRVMALYDFQARSPREVTMKKGDVLTLLSSINKDWWKVEAADHQGIVPDVYVRRLAH [A50D]: the abundance fitness was -0.872 ± 0.22.

Turning to EQRVMALYDFQARSPREVTMKKGDVLTLLSSINKDWWKVEAADHQGIVPGVYVRRLAH [A50G], the abundance fitness was -0.967 ± 0.19.

On to EQRVMALYDFQARSPREVTMKKGDVLTLLSSINKDWWKVEAADHQGIVPRVYVRRLAH [A50R], for which the abundance fitness came out at 0.04 ± 0.12.

For the variant EQRVMALYDFQARSPREVTMKKGDVLTLLSSINKDWWKVEAADHQGIVPSVYVRRLAH [A50S], the abundance fitness was determined as 0.011 ± 0.087.

Take EQRVMALYDFQARSPREVTMKKGDVLTLLSSINKDWWKVEAADHQGIVPVVYVRRLAH [A50V]: the abundance fitness is -0.79 ± 0.29.

Take EQRVMALYDFQARSPREVTMKKGDVLTLLSSINKDWWKVEAADHQGIVPWVYVRRLAH [A50W]: the abundance fitness was -0.879 ± 0.23.

Take EQRVMALYDFQARSPREVTMKKGDVLTLLSSINKDWWKVEAADHQGIVPCVYVRRLAH [A50C]: the abundance fitness is -0.512 ± 0.3.

The variants in another data set derive from B2. The description is as above. The following applies: Homo sapiens.
In the case of CELVKLQGERVRGLKQQKASAELIEEEVAKLLKLKAQL [E1C], the abundance fitness is -1.18 ± 0.46.

AELVKLQGERVRGLKQQKASAELIEEEVAKLLKLKAQL [E1A]: the abundance fitness was -0.62 ± 0.12.
